One data set addresses SNAP-FZD5 (UniProt Q13467). Kind of data set: SNAP-FZD5-dependent recruitment of DEP-GFP to the plasma membrane (cell scoring). The following applies: n = 100 cells scored in each case, read off a plot; for other: % of cells with strong recruitment (category 'strong'): parent: est. 98.
Data set [1] concerns the molecule itself. Nature of the data set: SEC-MALS; unfractionated purified Lip-DEP_(402–510), Lip tag kept; Tris-buffered saline (30 mM Tris, 300 mM NaCl, NaN3 0.03%, pH 7.4), Superdex S-200 10/300. A general note: SEC sorts molecules by how far they enter the pores of the column.
Data set [2] deals with the molecule itself. Nature of the data set: SEC-MALS; cleaved DEP monomer incubated with urea (0 to 5 M for wt; 3 M for the mutants) for 8 h at 25 °C, then SEC-MALS in Tris-buffered saline (30 mM Tris, 300 mM NaCl, pH 7.4); monomer to domain-swapped dimer.

Sequence of SNAP-FZD5 (Q13467 27-585): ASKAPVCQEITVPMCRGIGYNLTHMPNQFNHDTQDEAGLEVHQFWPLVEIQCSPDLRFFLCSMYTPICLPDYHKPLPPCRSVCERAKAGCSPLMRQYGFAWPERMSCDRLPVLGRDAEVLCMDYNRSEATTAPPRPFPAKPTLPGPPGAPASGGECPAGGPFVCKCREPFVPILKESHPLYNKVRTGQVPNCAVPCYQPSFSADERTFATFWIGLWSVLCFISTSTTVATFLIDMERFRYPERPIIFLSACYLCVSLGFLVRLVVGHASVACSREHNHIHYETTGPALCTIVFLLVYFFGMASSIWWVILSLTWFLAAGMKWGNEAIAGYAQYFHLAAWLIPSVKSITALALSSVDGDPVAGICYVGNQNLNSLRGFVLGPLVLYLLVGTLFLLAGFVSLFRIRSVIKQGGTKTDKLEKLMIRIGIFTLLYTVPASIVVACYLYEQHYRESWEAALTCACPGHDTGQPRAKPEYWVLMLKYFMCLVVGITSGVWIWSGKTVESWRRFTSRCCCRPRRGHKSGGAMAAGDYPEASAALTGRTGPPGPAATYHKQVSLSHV

For the molecule “DEP tagged with GFP (DEP-GFP), wild type (from UniProt O14641) S435A”, in the data set with SNAP-FZD5, the other: % of cells with strong recruitment (category 'strong') was 97 % of cells. As to “DEP tagged with GFP (DEP-GFP), wild type (from UniProt O14641) S418A”, the other: % of cells with strong recruitment (category 'strong') with SNAP-FZD5 is 98 % of cells. On the same count and under the same terms, then “DEP tagged with GFP (DEP-GFP), wild type (from UniProt O14641) S435E”, with 99 % of cells. For “DEP tagged with GFP (DEP-GFP), wild type (from UniProt O14641) S418E”, the other: % of cells with strong recruitment (category 'strong') in the data set with SNAP-FZD5 was 100 % of cells. In the case of “DEP tagged with GFP (DEP-GFP), wild type (from UniProt O14641) L445E”, the other: % of cells with no recruitment (category 'none') with SNAP-FZD5 is 94 % of cells.

B1: Lipoyl-tagged DEP (Lip-DEP_(402–510)), wild type (domain or fragment, human, UniProt O14641 402-510, looked up)
chain: ITSGSSLPDGCEGRGLSVHTDMASVTKAMAAPESGLEVRDRMWLKITIPNAFLGSDVVDWLYHHVEGFPERREARKYASGLLKAGLIRHTVNKITFSEQCYYVFGDLSG
notes: also called Lip-DEP402 to 510; source: E. coli BL21-CodonPlus(DE3)-RIL, purified (NiNTA, SEC)
For orientation: stoichiometry N means the number of molecules, sites or subunits per partner or assembly. Turning to B1, the “stoichiometry N” value in data set [1] turned out to be 2.

B2: Lip-DEP_(402–510) S418E (domain or fragment, human, UniProt O14641 402-510, looked up)
chain: ITSGSSLPDGCEGRGLEVHTDMASVTKAMAAPESGLEVRDRMWLKITIPNAFLGSDVVDWLYHHVEGFPERREARKYASGLLKAGLIRHTVNKITFSEQCYYVFGDLSG
notes: source: E. coli BL21-CodonPlus(DE3)-RIL, purified (NiNTA, SEC)
Regarding B2, the binding result in data set [1] was “binds”.

B3: Lip-DEP_(402–510) S435E (domain or fragment, human, UniProt O14641 402-510, looked up)
chain: ITSGSSLPDGCEGRGLSVHTDMASVTKAMAAPEEGLEVRDRMWLKITIPNAFLGSDVVDWLYHHVEGFPERREARKYASGLLKAGLIRHTVNKITFSEQCYYVFGDLSG
notes: as for B2
For the molecule B3, the binding result in data set [1] is given as “binds”.

B4: cleaved wt DEP monomer (Lip tag removed) (domain or fragment, human, UniProt O14641 402-510, looked up)
chain: ITSGSSLPDGCEGRGLSVHTDMASVTKAMAAPESGLEVRDRMWLKITIPNAFLGSDVVDWLYHHVEGFPERREARKYASGLLKAGLIRHTVNKITFSEQCYYVFGDLSG
notes: also called monomeric DEP; source: E. coli BL21-CodonPlus(DE3)-RIL, purified (NiNTA, SEC), Lip tag removed by tobacco etch virus protease
As for B4, in data set [2], the “stoichiometry N” value was determined as 2.

B5: Lip-DEP_(402–510) S435A (domain or fragment, human, UniProt O14641 402-510, looked up)
chain: ITSGSSLPDGCEGRGLSVHTDMASVTKAMAAPEAGLEVRDRMWLKITIPNAFLGSDVVDWLYHHVEGFPERREARKYASGLLKAGLIRHTVNKITFSEQCYYVFGDLSG
notes: as for B2
Regarding B5, the binding result in data set [1] is “binds”.

B6: Lip-DEP_(402–510) S418A (domain or fragment, human, UniProt O14641 402-510, looked up)
chain: ITSGSSLPDGCEGRGLAVHTDMASVTKAMAAPESGLEVRDRMWLKITIPNAFLGSDVVDWLYHHVEGFPERREARKYASGLLKAGLIRHTVNKITFSEQCYYVFGDLSG
notes: as for B2
As to B6, the binding result in data set [1] was “binds”.
